{"source": "patent US7977317B2", "about": "“Compositions and methods for modulating blood-brain barrier transport” (Raptor Pharmaceutical Inc., priority 2001, dated 2011)", "molecules": {"B1": {"name": "p97: recombinant human melanotransferrin (p97), provided by Synapse Technologies (protein, UniProt P08582 20-709, looked up)", "Melanotransferrin": "GMEVRWCATSDPEQHKCGNMSEAFREAGIQPSLLCVRGTSADHCVQLIAAQEADAITLDGGAIYEAGKEHGLKPVVGEVYDQEVGTSYYAVAVVRRSSHVTIDTLKGVKSCHTGINRTVGWNVPVGYLVESGRLSVMGCDVLKAVSDYFGGSCVPGAGETSYSESLCRLCRGDSSGEGVCDKSPLERYYDYSGAFRCLAEGAGDVAFVKHSTVLENTDGKTLPSWGQALLSQDFELLCRDGSRADVTEWRQCHLARVPAHAVVVRADTDGGLIFRLLNEGQRLFSHEGSSFQMFSSEAYGQKDLLFKDSTSELVPIATQTYEAWLGHEYLHAMKGLLCDPNRLPPYLRWCVLSTPEIQKCGDMAVAFRRQRLKPEIQCVSAKSPQHCMERIQAEQVDAVTLSGEDIYTAGKTYGLVPAAGEHYAPEDSSNSYYVVAVVRRDSSHAFTLDELRGKRSCHAGFGSPAGWDVPVGALIQRGFIRPKDCDVLTAVSEFFNASCVPVNNPKNYPSSLCALCVGDEQGRNKCVGNSQERYYGYRGAFRCLVENAGDVAFVRHTTVFDNTNGHNSEPWAAELRSEDYELLCPNGARAEVSQFAACNLAQIPPHAVMVRPDTNIFTVYGLLDKAQDLFGDDHNKNGFKMFDSSNYHGQDLLFKDATVRAVPVGEKTTYRGWLGLDYVAALEGMSSQQC"}}, "experiment": "Brain uptake one hour after i.v. injection", "format": "in vivo", "conditions": "mice, one hour after i.v. injection of [125I]-protein (FIG. 11a)", "experimental": "FIG. 11 examines the accumulation and transcytosis of p97. FIG. 11a, of [^125I]-p97, [^125I]-BSA and [^125I]-holo-transferrin one hour after i.v. injection. The radioactivity in brain was compared between the three compounds. (n=3); FIG. 11b, Accumulation of p97 and transferrin into the mouse brain parenchyma. In situ brain perfusion was performed with human [^125I]-p97 or [^125I]-holo-transferrin at a final concentration of 10 nM via a catheter inserted in the right common carotid artery. The volume of distribution (VD) of [^125I]-proteins were obtained in the whole brain homogenate (white bars), in brain capillaries (solid bars) and in brain parenchyma (hatched bars) after isolation of the right hemisphere and capillary depletion. Results were obtained for p97 (n=10) and for holo-transferrin (n=6); FIG. 11c, Transcytosis of p97 across BBCEC monolayers. Transcytosis experiments were performed 37° C. (open circles) and 4° C. (closed circles) with BBCEC monolayers. […] Apical-to-basal and basal-to-apical transport of [^125I]-p97 (25 nM) was measured for 2 hrs at 37° C. At the end of the experiment, [^125I]-p97 was assessed in the lower or upper chambers of each well by TCA precipitation (n=4).\nA. Brain uptake and in situ brain perfusion. […] The serum and brain samples were collected and the levels of radioactivity were measured. […]"}
{"molecule": "B1", "values": [{"measurement": "Brain/serum ratio", "value": 0.025}]}
